For this assay, the target named is recombinant human PCSK9 with 6x His tag (proprotein convertase subtilisin/kexin type-9) (human, UniProt Q8NBP7 31-692). The assay can be described thus: BLI.

In general, koff refers to a measure of how fast the partners let go of each other.

B1: recombinant human CAP1 (adenylyl cyclase-associated protein 1) (natural protein)
chain: MADMQNLVERLERAVGRLEAVSHTSDMHRGYADSPSKAGAAPYVQAFDSLLAGPVAEYLKISKEIGGDVQKHAEMVHTGLKLERALLVTASQCQQPAENKLSDLLAPISEQIKEVITFREKNRGSKLFNHLSAVSESIQALGWVAMAPKPGPYVKEMNDAAMFYTNRVLKEYKDVDKKHVDWVKAYLSIWTELQAYIKEFHTTGLAWSKTGPVAKELSGLPSGPSAGSCPPPPPPCPPPPPVSTISCSYESASRSSLFAQINQGESITHALKHVSDDMKTHKNPALKAQSGPVRSGPKPFSAPKPQTSPSPKRATKKEPAVLELEGKKWRVENQENVSNLVIEDTELKQVAYIYKCVNTTLQIKGKINSITVDNCKKLGLVFDDVVGIVEIINSKDVKVQVMGKVPTISINKTDGCHAYLSKNSLDCEIVSAKSSEMNVLIPTEGGDFNEFPVPEQFKTLWNGQKLVTTVTEIAG
For B1, the koff stood at 0.00132 s⁻¹.

The values are drawn from article PMC10981688 (2024).
